Data taken from PMC5264599.

B1: wild type p16-GFP [not stated] / CDK4 (Cyclin-dependent protein kinase), endogenous in 293T cells [human (endogenous in 293T)] (parent)
chain 1: MEPAAGSSMEPSADWLATAAARGRVEEVRALLEAGALPNAPNSYGRRPIQVMMMGSARVAELLLLHGAEPNCADPATLTRPVHDAAREGFLDTLVVLHRAGARLDVRDAWGRLPVDLAEELGHRDVARYLRAAAGGTRGSNHARIDAAEGPSDIPD
chain 2: MATSRYEPVAEIGVGAYGTVYKARDPHSGHFVALKSVRVPNGGGGGGGLPISTVREVALLRRLEAFEHPNVVRLMDVCATSRTDREIKVTLVFEHVDQDLRTYLDKAPPPGLPAETIKDLMRQFLRGLDFLHANCIVHRDLKPENILVTSGGTVKLADFGLARIYSYQMALTPVVVTLWYRAPEVLLQSTYATPVDMWSVGCIFAEMFRRKPLFCGNSEADQLGKIFDLIGLPPEDDWPRDVSLPRGAFPPRGPRPVQSVVPEMEESGAQLLLEMLTFNPHKRISAFRALQHSYLHKDEGNPE

Variants of: B1
Test: co-immunoprecipitation (anti-GFP IP, anti-CDK4 immunoblot, photodensitometry)
Conditions: with CDK4 (Cyclin-dependent protein kinase), scale: relative intensity
[1] = 1 mM H2O2 for 24 h, read off a plot

Row | Variant | response [1] | response (no H2O2, read off a plot)
1 | chain 1 S152A | 1.7 | 1.1
2 | chain 1 S140A | 0.92 | 0.85
3 | chain 1 S8A | 1.4 | 0.92
